Assay results from patent publication US20230192796A1 (published 2023).

Biological target: T1, Human IL-10Rβ on cells (Daudi, Jurkat, YT-1, THP-1 cell lines; primary human PBMC populations) (human, UniProt Q08334 20-325)
T1 sequence (looked up): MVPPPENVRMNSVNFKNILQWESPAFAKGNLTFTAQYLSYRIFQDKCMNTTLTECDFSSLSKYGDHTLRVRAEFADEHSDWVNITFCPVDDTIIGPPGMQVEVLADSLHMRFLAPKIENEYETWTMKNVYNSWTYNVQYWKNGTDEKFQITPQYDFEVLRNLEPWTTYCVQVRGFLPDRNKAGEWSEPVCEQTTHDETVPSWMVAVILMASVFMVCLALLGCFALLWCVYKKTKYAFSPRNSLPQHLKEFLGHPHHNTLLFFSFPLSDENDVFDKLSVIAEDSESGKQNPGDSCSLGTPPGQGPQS
Assay: cell-based or functional assay

ratio of super-10 to 10-DE STAT3 Emax in Daudi cells: > 20 ratio (super-10:10-DE)
ratio of super-10 to 10-DE STAT3 Emax in THP-1 cells: ~1 ratio (super-10:10-DE)
B1: Affinity matured IL-10 clone 5.1 (Super-10), soluble (ligand)
chain: SPGQGTQSENSCTHFPGYLPNMLRDLRDAFSRVKTFFQMKDQLDNLLLKESLLEDFKGYLGCQALSEMIQFYLEEVMPQAENQDPDIKAHVQSLGENLKDLRLWLRRCHRFLPCENKSKAVEQVKNAFNKLQEKGIYKAMSEFDIFINYIEAYMTMKIRNHHHHHH
